The record followed here is patent US20200231674A1 (published 2020).

This test addresses T1, human CD8 alpha (on transfected HEK293T cells) (human, UniProt P01732 22-235).
T1 construct: whole, on cells
As to the kind of experiment: FACS on HEK293-T cells transfected with human CD8a (Example 2, FIG. 4). As for the experimental part:
The binding characteristics of various VHHs (as described in Example 1) were tested by flow cytometry. HEK293-T cells were transfected with a human CD8a expression plasmid and stained with the His-tagged VHHs at […], followed by staining with an anti-His Fitc conjugated antibody. Binding was measured by detecting cellular fluorescence via flow cytometry.

T1 sequence (P01732 22-235): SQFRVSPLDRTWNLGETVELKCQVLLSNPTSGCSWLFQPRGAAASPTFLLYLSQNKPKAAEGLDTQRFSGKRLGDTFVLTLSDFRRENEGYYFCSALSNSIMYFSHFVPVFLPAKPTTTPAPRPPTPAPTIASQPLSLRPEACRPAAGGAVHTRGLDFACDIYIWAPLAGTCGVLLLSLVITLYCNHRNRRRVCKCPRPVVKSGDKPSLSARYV

B1: 2CDA 74 (VHH)
VHH: QVQLQESGGGLVQAGGSLRLSCAVSGFTFDNYAIGWFRQAPGKEREGVSCISRSDGSTYYADSVRGRFTISSDNAKNTVYLQMNSLKPEDTAVYYCAAETSADSGEFRFGWVLKPSLYDYWGQGTQVTVSS
notes: entry carries AAA-HA-His6 tail (pMECS format); free cysteine in CDR2 at position 50
Turning to B1, the binding result is recorded as “binds”.
